From paper PMC4593227, “Biochemical effects of mutations in the gene encoding the alpha subunit of eukaryotic initiation factor (eIF) 2B associated with Vanishing White Matter disease” (BMC Medical Genetics, 2015) come the findings set out here.

The labels stand for the following.
B1: His6-myc-tagged wild-type eIF2Bα [human] / myc-tagged eIF2Bγ [not stated] (parent)
chain 1: MDDKELIEYFKSQMKEDPDMASAVAAIRTLLEFLKRDKGETIQGLRANLTSAIETLCGVDSSVAVSSGGELFLRFISLASLEYSDYSKCKKIMIERGELFLRRISLSRNKIADLCHTFIKDGATILTHAYSRVVLRVLEAAVAAKKRFSVYVTESQPDLSGKKMAKALCHLNVPVTVVLDAAVGYIMEKADLVIVGAEGVVENGGIINKIGTNQMAVCAKAQNKPFYVVAESFKFVRLFPLNQQDVPDKFKYKADTLKVAQTGQDLKEEHPWVDYTAPSLITLLFTDLGVLTPSAVSDELIKLYL
chain 2: MEFQAVVMAVGGGSRMTDLTSSIPKPLLPVGNKPLIWYPLNLLERVGFEEVIVVTTRDVQKALCAEFKMKMKPDIVCIPDDADMGTADSLRYIYPKLKTDVLVLSCDLITDVALHEVVDLFRAYDASLAMLMRKGQDSIEPVPGQKGKKKAVEQRDFIGVDSTGKRLLFMANEADLDEELVIKGSILQKHPRIRFHTGLVDAHLYCLKKYIVDFLMENGSITSIRSELIPYLVRKQFSSASSQQGQEEKEEDLKKKELKSLDIYSFIKEANTLNLAPYDACWNACRGDRWEDLSRSQVRCYVHIMKEGLCSRVSTLGLYMEANRQVPKLLSALCPEEPPVHSSAQIVSKHLVGVDSLIGPETQIGEKSSIKRSVIGSSCLIKDRVTITNCLLMNSVTVEEGSNIQGSVICNNAVIEKGADIKDCLIGSGQRIEAKAKRVNEVIVGNDQLMEI
B2: His6-myc-tagged wild-type eIF2Bα [human] / myc-tagged eIF2Bβ [not stated] (parent)
chain 1: B1 chain 1
chain 2: MPGSAAKGSELSERIESFVETLKRGGGPRSSEEMARETLGLLRQIITDHRWSNAGELMELIRREGRRMTAAQPSETTVGNMVRRVLKIIREEYGRLHGRSDESDQQESLHKLLTSGGLNEDFSFHYAQLQSNIIEAINELLVELEGTMENIAAQALEHIHSNEVIMTIGFSRTVEAFLKEAARKRKFHVIVAECAPFCQGHEMAVNLSKAGIETTVMTDAAIFAVMSRVNKVIIGTKTILANGALRAVTGTHTLALAAKHHSTPLIVCAPMFKLSPQFPNEEDSFHKFVAPEEVLPFTEGDILEKVSVHCPVFDYVPPELITLFISNIGGNAPSYIYRLMSELYHPDDHVL

The variants in the first test derive from B1. Kind of test: Ni2+ agarose affinity purification (pull-down), western blot for myc tag, quantified. As to conditions: with myc-tagged eIF2Bγ; HEK293 cell lysates; 3 independent experiments; read off a plot. In general terms: A western blot detects proteins with antibodies after separation by electrophoresis.
In the case of chain 1 MDDKELIEYFKSQMKEDPDMASAVAAIRTLLEFLKRDKGETIQGLRANLTSAIETLCGVDSSVAVSSGGELFLRFISLASLEYSDYSKCKKIMIERGELFLRRISLSRNKIADLCHTFIKDGATILTHAYSRVVLRVLEAAVAAKKRFSVYVTESQPDLSGKKMAKALCHLNVPVTVVLDAAVGYIMEKADLVIVGAEGVVENGGIINKIGTNQMAVCAKAQNKPFYVVAESFKFVRLFPLNQQDVPDKFKYKADTLKVAQTGQDLKEEHPWVDYTARSLITLLFTDLGVLTPSAVSDELIKLYL [chain 1 P278R], the ratio to parent was 0.95. Same read-out and setting: the figure for chain 1 MDDKELIEYFKSQMKEDPDMASAVAAIRTLLEFLKRDKGETIQGLRANLTSAIETLCGVDSSVAVSSGGELFLRFISLASLEYSDYSKCKKIMIERGELFLRRISLSRNKIADLCHTFIKDGATILTHAYSRVVLRVLEAAVAAKKRFSVYVTESQPDLSGKKMAKALCHLNVPVTVVLDAAVGYIMEKADLVIVGAEGVVENGGIIYKIGTNQMAVCAKAQNKPFYVVAESFKFVRLFPLNQQDVPDKFKYKADTLKVAQTGQDLKEEHPWVDYTAPSLITLLFTDLGVLTPSAVSDELIKLYL [chain 1 N208Y] is 1.2.

In the next test the parent is B2. The test is described as above. As to conditions: with myc-tagged eIF2Bβ; HEK293 cell lysates; 3 independent experiments; read off a plot.
As to chain 1 MDDKELIEYFKSQMKEDPDMASAVAAIRTLLEFLKRDKGETIQGLRANLTSAIETLCGVDSSVAVSSGGELFLRFISLASLEYSDYSKCKKIMIERGELFLRRISLSRNKIADLCHTFIKDGATILTHAYSRVVLRVLEAAVAAKKRFSVYVTESQPDLSGKKMAKALCHLNVPVTVVLDAAVGYIMEKADLVIVGAEGVVENGGIIYKIGTNQMAVCAKAQNKPFYVVAESFKFVRLFPLNQQDVPDKFKYKADTLKVAQTGQDLKEEHPWVDYTAPSLITLLFTDLGVLTPSAVSDELIKLYL [chain 1 N208Y], the ratio to parent came to 1. On the same count and under the same terms, the value for chain 1 MDDKELIEYFKSQMKEDPDMASAVAAIRTLLEFLKRDKGETIQGLRANLTSAIETLCGVDSSVAVSSGGELFLRFISLASLEYSDYSKCKKIMIERGELFLRRISLSRNKIADLCHTFIKDGATILTHAYSRVVLRVLEAAVAAKKRFSVYVTESQPDLSGKKMAKALCHLNVPVTVVLDAAVGYIMEKADLVIVGAEGVVENGGIINKIGTNQMAVCAKAQNKPFYVVAESFKFVRLFPLNQQDVPDKFKYKADTLKVAQTGQDLKEEHPWVDYTARSLITLLFTDLGVLTPSAVSDELIKLYL [chain 1 P278R] was 0.66.
